Reference: paper PMC2929994 (Molecular Biology of the Cell, 2010)
Read-outs that look alike come from different tables or passages of the source.

Experiments:
Assay in all cases: split reporter
[1] = target: Rsr1 GTPase, split-YFP fusion for BiFC (YFP^N-Rsr1 / YFP^C-Rsr1) (S. cerevisiae) (UniProt P13856)
[2] = target: Rsr1 GTPase, split-YFP fusion for BiFC (YFP^N-Rsr1 / YFP^C-Rsr1) (S. cerevisiae) (UniProt P13856); remark: listed apart in the source
split reporter = target: the molecule itself

Molecule: Rsr1-7^K260–264S, split-YFP fusion for BiFC (from UniProt P13856 1-272) (natural protein)
- percent of unbudded cells with BiFC signal [1]: 1.7%
- percent of unbudded cells with BiFC signal [2]: < 2%

B1: Rsr1^K16N, split-YFP fusion for BiFC (natural protein, S. cerevisiae, UniProt P13856 1-272, looked up)
chain: MRDYKLVVLGAGGVGNSCLTVQFVQGVYLDTYDPTIEDSYRKTIEIDNKVFDLEILDTAGIAQFTAMRELYIKSGMGFLLVYSVTDRQSLEELMELREQVLRIKDSDRVPMVLIGNKADLINERVISVEEGIEVSSKWGRVPFYETSALLRSNVDEVFVDLVRQIIRNEMESVAVKDARNQSQQFSKIESPSTRLPSSAKQDTKQSNNKQSSKGLYNKSSQGQAKVKQSTPVNEKHKPSHAVPKSGSSNRTGISATSQQKKKKKNASTCTIL
- percent of unbudded cells with BiFC signal (split reporter): 84%
